Test results as given in patent US8765433B2, “Alcohol dehydrogenases (ADH) useful for fermentive production of lower alkyl alcohols” (Butamax Advanced Biofuels LLC, priority 2009, dated 2014).

Legend:
[1] = Isobutanol oxidation assay; assay type: biochemical; conditions: Table 8
Method: (§1) As a routine practice, the crude extracts and purified proteins were assayed for butanol oxidation activity, in order to ensure that the recombinant proteins were active throughout the purification process. […] Alcohol oxidation activities were carried out in 50 mM sodium phosphate buffer at pH 8.8 and aldehyde reduction reactions were assayed in 190 mM potassium phosphate buffer at pH 7.0. Depending on the nature of reaction being carried out, the enzyme and cofactor stocks were diluted in the reaction buffers at the respective pHs. Either buffer or cell extract prepared from the proprietary E. coli strain (with no ADH plasmid) was used as the negative control for assays with purified protein and cell-free extracts, respectively.
Kinetic constants of the ADH enzymes were calculated and compared to identify those candidate ADH enzymes with the most desirable properties for the conversion of isobutyraldehyde to isobutanol in the last step of the engineered pathway for isobutanol production. The assays for determining the kinetic constants were carried out using initial rates from the assays described above. […] The concentration of a given enzyme was such that it was conducive for the measurement of initial velocities over a 1-min time course. For each enzyme, Michaelis-Menten plots were generated with a broad range of substrate concentrations. Rough estimates of KM were obtained, based on which the assays were redesigned so as to use substrate concentrations in the range 0.5 to 10 times the KM value, to be able to obtain the appropriate kinetic constants. […] When calculating the KI for isobutanol, the same reactions were carried out in the presence of varying concentrations of isobutanol (generally 0-535 mM) in the reaction (see FIG. 7, for example). Reactions with isobutanol substrate were performed at 30° C. in 50 mM Sodium phosphate buffer, pH 8.8, containing 7.5 mM NAD. The Enzyme kinetics module (Version 1.3) of SigmaPlot 11 (Systat Software, Inc.) was used to fit data to Michaelis-Menten equations and calculate the kinetic constants. The kcat/KM is derived from the individual numbers of kcat and KM and not an experimentally determined value. The ratios of the KM, KI, and kcat/KM for each candidate enzyme as compared to the same parameter for SadB are given in Table 9.

[2] = Cofactor specificity in isobutyraldehyde reduction reactions; assay type: biochemical; conditions: for COFACTOR PREFERENCE: isobutyraldehyde reduction, NADH or NADPH as cofactor
Method: as §1
In initial experiments, there were insufficient levels of protein expression with EhADH1 and RpADH8. […] It is believed that one of skill in the art could further optimize expression and assay conditions for these candidates. Sufficient amounts of active protein could be purified with all other enzymes for which data are presented. […]

| Molecule | conversion of isobutanol to isobutyraldehyde [1] | Other enzymatic properties and cofactor preference ([2]; Table 8) | COFACTOR PREFERENCE [2] | Other enzymatic properties and cofactor preference ([2]; Table 7) |
| --- | --- | --- | --- | --- |
| GbADH: Geobacillus sp. WCH70 ADH, SEQ ID NO: 37 (protein, Geobacillus sp. WCH70) MKALTYLGPGKKEVMEKPKPKIEKETDAIVKITKTTICGTDLHILSGDVPTVEEGRILGHEGVGIIEEVGSGVKNFKKGDRVLISCITSCGKCENCKKGLYAHCEDGGWILGHLIDGTQAEYVRIPHADNSLYPIPEGVDEEALVMLSDILPTGFEIGVLNGKVQPGQTVAIIGAGPVGMAALLTAQFYSPAEIIMVDLDDNRLEVAKKFGATQVVNSADGKAVEKIMELTGGKGVDVAMEAVGIPVTFDICQEIVKPGGYIANIGVHGKSVEFHIEKLWIRNITLTTGLVNTTSTPMLLKTVQSKKLKPEQLITHRFAFADIMKAYEVFGNAAKEKALKVIISND | No measureable | NADPH specific | NADPH |  |
| TADH: Thermus sp. ATN1 ADH, SEQ ID NO: 33 (protein, Thermus sp. ATN1) MRAVVFENKERVAVKEVNAPRLQHPLDALVRVHLAGICGSDLHLYHGKIPVLPGSVLGHEFVGQVEAVGEGIQDLQPGDWVVGPFHIACGTCPYCRRHQYNLCERGGVYGYGPMFGNLQGAQAEILRVPFSNVNLRKLPPNLSPERAIFAGDILSTAYGGLIQGQLRPGDSVAVIGAGPVGLMAIEVAQVLGASKILAIDRIPERLERAASLGAIPINAEQENPVRRVRSETNDEGPDLVLEAVGGAATLSLALEMVRPGGRVSAVGVDNAPSFPFPLASGLVKDLTFRIGLANVHLYIDAVLALLASGRLQPERIVSHYLPLEEAPRGYELFDRKEALKVLLVVRG |  |  | NADH | NADH specific |
| AbADH: Acinetobacter baumannii AYE ADH, SEQ ID NO: 36 (protein, Acinetobacter baumannii AYE) MENIMKAMVYYGDHDIRFEERKKPELIDPTDAIIKMTKTTICGTDLGIYKGKNPEIEQKEQEKNGSFNGRILGHEGIGIVEQIGSSVKNIKVGDKVIVSCVSRCGTCENCAKQLYSHCRNDGGWIMGYMIDGTQAEYVRTPFADTSLYVLPEGLNEDVAVLLSDALPTAHEIGVQNGDIKPGDTVAIVGAGPVGMSALLTAQFYSPSQIIMIDMDENRLAMAKELGATDTINSGTEDAIARVMELTNQRGVDCAIEAVGIEPTWDICQNIVKEGGHLANVGVHGKSVNFSLEKLWIKNLTITTGLVNANTTGMLLKSCCSGKLPMEKLATHHFKFNEIEKAYDVFINAAKEKAMKVIIDF | No measureable | NADH specific | NADH |  |
| CbADH: Clostridium beijerinckii ADH, SEQ ID NO: 29 (protein, listed as Clostridium beijerinckii) MKGFAMLGINKLGWIEKERPVAGSYDAIVRPLAVSPCTSDIHTVFEGALGDRKNMILGHEAVGEVVEVGSEVKDFKPGDRVIVPCTTPDWRSLEVQAGFQQHSNGMLAGWKFSNFKDGVFGEYFHVNDADMNLAILPKDMPLENAVMITDMMTTGFHGAELADIQMGSSVVVIGIGAVGLMGIAGAKLRGAGRIIGVGSRPICVEAAKFYGATDILNYKNGHIVDQVMKLTNGKGVDRVIMAGGGSETLSQAVSMVKPGGIISNINYHGSGDALLIPRVEWGCGMAHKTIKGGLCPGGRLRAEMLRDMVVYNRVDLSKLVTHVYHGFDHIEEALLLMKDKPKDLIKAVVIL |  |  | NADPH | NADPH specific |
| MsADH: Methylocella silvestris BL2 ADH, SEQ ID NO: 35 (protein, Methyloceclla silvestris BL2) MKALVYHGPGQKALEERPKPQIEASGDAIVKIVKTTICGTDLHILKGDVATCAPGRILGHEGVGIIDSVGAGVTAFQPGDRVLISCISSCGKCDYCRRGLYSHCTTGGWILGNEIDGTQAEYVRTPHADTSLYRIPAGADEEALVMLSDILPTGFECGVLNGKVEPGSTVAIVGAGPIGLAALLTAQFYAPGDIIMIDLDDNRLDVARRFGATHTINSGDGKAAEAVKALTGGIGVDTAIEAVGIPATFLLCEDIVAPGGVIANVGVHGVKVDLHLERLWAHNITITTRLVDTVTTPMLLKTVQSKKLDPLQLITHRFTLDHILDAYDTFSRAADTKALKVIVSA | No measureable | NADH specific | NADH |  |
| HLADH: Horse-liver ADH (A-6128) purchased from Sigma; control polypeptide, SEQ ID NO: 21 (protein, listed as Equus caballus) MSTAGKVIKCKAAVLWEEKKPFSIEEVEVAPPKAHEVRIKMVATGICRSDDHVVSGTLVTPLPVIAGHEAAGIVESIGEGVTTVRPGDKVIPLFTPQCGKCRVCKHPEGNFCLKNDLSMPRGTMQDGTSRFTCRGKPIHHFLGTSTFSQYTVVDEISVAKIDAASPLEKVCLIGCGFSTGYGSAVKVAKVTQGSTCAVFGLGGVGLSVIMGCKAAGAARIIGVDINKDKFAKAKEVGATECVNPQDYKKPIQEVLTEMSNGGVDFSFEVIGRLDTMVTALSCCQEAYGVSVIVGVPPDSQNLSMNPMLLLSGRTWKGAIFGGFKSKDSVPKLVADFMAKKFALDPLITHVLPFEKINEGFDLLRSGESIRTILTF |  |  | NADH |  |
| RnADH1: Rattus norvegicus ADH1, SEQ ID NO: 32 (protein, listed as Rattus norvegicus) MSTAGKVIKCKAAVLWEPHKPFTIEDIEVAPPKAHEVRIKMVATGVCRSDDHAVSGSLFTPLPAVLGHEGAGIVESIGEGVTCVKPGDKVIPLFSPQCGKCRICKHPESNLCCQTKNLTQPKGALLDGTSRFSCRGKPIHHFISTSTFSQYTVVDDIAVAKIDAAAPLDKVCLIGCGFSTGYGSAVQVAKVTPGSTCAVFGLGGVGLSVVIGCKTAGAAKIIAVDINKDKFAKAKELGATDCINPQDYTKPIQEVLQEMTDGGVDFSFEVIGRLDTMTSALLSCHSACGVSVIVGVPPSAQSLSVNPMSLLLGRTWKGAIFGGFKSKDAVPKLVADFMAKKFPLEPLITHVLPFEKINEAFDLLRAGKSIRTVLTF |  |  | NADH | NADH specific |
| ScADH7: Saccharomyces cerevisiae ADH7 alcohol dehydrogenase, SEQ ID NO: 23 (protein, listed as Saccharomyces cerevisiae) MLYPEKFQGIGISNAKDWKHPKLVSFDPKPFGDHDVDVEIEACGICGSDFHIAVGNWGPVPENQILGHEIIGRVVKVGSKCHTGVKIGDRVGVGAQALACFECERCKSDNEQYCTNDHVLTMWTPYKDGYISQGGFASHVRLHEHFAIQIPENIPSPLAAPLLCGGITVFSPLLRNGCGPGKRVGIVGIGGIGHMGILLAKAMGAEVYAFSRGHSKREDSMKLGADHYIAMLEDKGWTEQYSNALDLLVVCSSSLSKVNFDSIVKIMKIGGSIVSIAAPEVNEKLVLKPLGLMGVSISSSAIGSRKEIEQLLKLVSEKNVKIWVEKLPISEEGVSHAFTRMESGDVKYRFTLVDYDKKFHK |  |  | NADPH | NADPH specific |
| SadB: Achromobacter xylosoxidans Secondary Alcohol Dehydrogenase B; control polypeptide, SEQ ID NO: 26 (protein, Achromobacter xylosoxidans) MKALVYHGDHKISLEDKPKPTLQKPTDVVVRVLKTTICGTDLGIYKGKNPEVADGRILGHEGVGVIEEVGESVTQFKKGDKVLISCVTSCGSCDYCKKQLYSHCRDGGWILGYMIDGVQAEYVRIPHADNSLYKIPQTIDDEIAVLLSDILPTGHEIGVQYGNVQPGDAVAIVGAGPVGMSVLLTAQFYSPSTIIVIDMDENRLQLAKELGATHTINSGTENVVEAVHRIAAEGVDVAIEAVGIPATWDICQEIVKPGAHIANVGVHGVKVDFEIQKLWIKNLTITTGLVNTNTTPMLMKVASTDKLPLKKMITHRFELAEIEHAYQVFLNGAKEKAMKIILSNAGAA |  |  | NADH |  |
| PzADH: Phenylobacterium zucineum HLK1 ADH, SEQ ID NO: 34 (protein, Phenylobacterium zucineum HLK1) MKALVYGGPGQKSLEDRPKPELQAPGDAIVRIVKTTICGTDLHILKGDVATCAPGRILGHEGVGIVDSVGAAVTAFRPGDHVLISCISACGKCDYCRRGMYSHCTTGGWILGNEIDGTQAEYVRTPHADTSLYPVPAGADEEALVMLSDILPTGFECGVLNGKVAPGGTVAIVGAGPIGLAALLTAQFYSPAEIIMIDLDDNRLGIARQFGATQTINSGDGRAAETVKALTGGRGVDTAIEAVGVPATFELCQDLVGPGGVIANIGVHGRKVDLHLDRLWSQNIAITTRLVDTVSTPMLLKTVQSRKLDPSQLITHRFRLDEILAAYDTFARAADTQALKVIIAA | No measureable | NADH specific | NADH |  |
